Laboratory results as given in patent publication US20210371529A1 (Innovent, published 2021).

T1: rhLAG3 protein (huFc) (human, UniProt P18627 23-450, limits assumed)
T1 construct: Bought Fc fusion; also called antigen rhLAG3 protein (huFc) (Sino Biological); human LAG-3; not shown: human Fc
T1 sequence (looked up): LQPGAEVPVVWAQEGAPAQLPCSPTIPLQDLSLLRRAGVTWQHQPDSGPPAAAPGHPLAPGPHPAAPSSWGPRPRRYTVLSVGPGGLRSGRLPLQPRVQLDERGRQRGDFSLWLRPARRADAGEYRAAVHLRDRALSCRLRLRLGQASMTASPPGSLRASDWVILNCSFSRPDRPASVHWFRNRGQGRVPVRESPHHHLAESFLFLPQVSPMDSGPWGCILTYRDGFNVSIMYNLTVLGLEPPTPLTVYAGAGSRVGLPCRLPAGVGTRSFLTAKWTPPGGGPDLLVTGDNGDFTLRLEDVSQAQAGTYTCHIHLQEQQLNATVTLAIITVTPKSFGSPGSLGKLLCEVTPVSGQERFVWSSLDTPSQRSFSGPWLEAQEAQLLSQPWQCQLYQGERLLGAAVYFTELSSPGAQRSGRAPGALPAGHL

T2: mouse LAG-3 overexpressed on CHO cells (mouse, UniProt Q61790 24-521)
T2 construct: whole, on cells; also called CHO-mLAG-3 cells; mouse LAG-3 on the cell surface
T2 sequence (looked up): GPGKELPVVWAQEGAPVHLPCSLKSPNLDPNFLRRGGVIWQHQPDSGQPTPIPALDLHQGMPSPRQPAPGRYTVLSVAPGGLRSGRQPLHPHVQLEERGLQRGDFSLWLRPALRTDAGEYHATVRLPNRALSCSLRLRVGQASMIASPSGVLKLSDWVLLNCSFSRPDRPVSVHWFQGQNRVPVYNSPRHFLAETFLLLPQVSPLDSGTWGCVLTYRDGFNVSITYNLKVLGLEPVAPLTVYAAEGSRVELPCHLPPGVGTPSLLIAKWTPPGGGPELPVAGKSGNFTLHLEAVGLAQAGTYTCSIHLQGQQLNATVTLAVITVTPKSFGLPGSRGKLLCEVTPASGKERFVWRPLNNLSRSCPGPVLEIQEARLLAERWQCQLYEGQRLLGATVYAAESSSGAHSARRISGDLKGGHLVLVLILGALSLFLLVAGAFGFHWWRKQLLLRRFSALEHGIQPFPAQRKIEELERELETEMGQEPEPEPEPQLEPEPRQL


Assays:
rhLAG3 protein (huFc) = target: T1, rhLAG3 protein (huFc); test: flow cytometry, blocking of rhLAG3 (huFc) 20 nM binding to HLA-DR on CHO-DR cells
Method: Antigen rhLAG3 protein (huFc) (Sino Biological) was diluted to 40 nM, 50 μL/well. […] 50 μL of the diluted antibodies was added to each well, and incubated in PBS on ice for 30 min. The final antigen concentration was 20 nM and the maximum antibody concentration was 40 nM. The CHO-DR cells were adjusted to 3×10⁵ cells/well, 100 μL/well. The cells were centrifuged at 300 g for 5 min. The supernatant was discarded. Then the cells were resuspended in an antigen-antibody mixture. The mixture was incubated on ice for 30 min. PBS was added, 100 μL/well. After centrifugation at 300 g for 5 min, the mixture was washed with PBS once. 100 μL of goat anti-human IgG-PE (Southern Biotech) diluted in 1:100 was added to each well. After a 20-min ice bath, PBS was added, 100 μL/well. The mixture was centrifuged at 300 g for 5 min, prior to one wash with PBS. The cells were resuspended with 100 μL of PBS. The cell fluorescence signal values were measured by flow cytometry (BD Biosciences).

[1] = target: T2, mouse LAG-3 overexpressed on CHO cells; test: flow cytometry (MFI) on CHO cells overexpressing mouse LAG-3; value from the EC50 table on the sheet, which has no unit of its own (concentration axis in nM); the curve has no plateau
Method: (§1) The cells were incubated on ice for 30 min. The cells were then washed at least twice prior to addition of a secondary antibody (a PE-labeled goat anti-human IgG antibody, Southern Biotech, final concentration […]) diluted in 1:100, and incubated on ice (protected from light) for 30 minutes. The cells were washed at least twice and analyzed by flow cytometry. The flow cytometry assay was performed on an Accuri C6 system (BD Biosciences), and a concentration-dependent curve was fitted with GraphPad according to the mean fluorescence intensity (MFI).

[2] = target: T2, mouse LAG-3 overexpressed on CHO cells; test: flow cytometry on CHO-mLAG-3 cells, MFI curve
Method: as §1

Row | IC50 (rhLAG3 protein (huFc)) [nM] | EC50 [1] [nM] | EC50 [2] [nM] | Binder
1 | 5.85 | ~12100 | – | ADI-31851 (antibody, human IgG4 S228P, kappa, F234A L235A, V domains shown, IgG4 heavy chain constant region with kappa light chain; expressed in HEK293 cells) VH: QLQLQESGPGLVKPSETLSLTCTVSGGSISSPDYYWGWIRQPPGKGLEWIGSIVYSGYTYYNPSLKSRVTISVDTSKNQFSLKLSSVTAADTAVYYCARVRTWDQSFDIWGQGTMVTVSS VL: DIQMTQSPSSLSASVGDRVTITCQAGQDISNYLNWYQQKPGKAPKLLIYDASNLETGVPSRFSGSGSGTDFTFTISSLQPEDIATYYCQQVLELPPWTFGGGTKVEIKR
2 | 4.53 | – | 42.3 | ADI-31853 (antibody, human IgG4 S228P, kappa, F234A L235A, V domains shown, IgG4 heavy chain constant region with kappa light chain; expressed in HEK293 cells) VH: QLQLQESGPGLVKPSETLSLTCTVSGGSIYSESYYWGWIRQPPGKGLEWIGSIVYSGYTYYNPSLKSRVTISVDTSKNQFSLKLSSVTAADTAVYYCARVRTWDAAFDIWGQGTMVTVSS VL: DIQMTQSPSSLSASVGDRVTITCQASQDISNYLNWYQQKPGKAPKLLIYDASNLETGVPSRFSGSGSGTDFTFTISSLQPEDIATYYCQQVLELPPWTFGGGTKVEIKR
